For eight proteins, Activity towards hGHQ40N (RFU/sec/µg), dansyl-cadaverine incorporation and Activity towards hGHQ141N (RFU/sec/µg), dansyl-cadaverine incorporation results are on record in patent publication US20100087371.

hGHQ40N, P01241, sequence (P01241 27-217 Q66N): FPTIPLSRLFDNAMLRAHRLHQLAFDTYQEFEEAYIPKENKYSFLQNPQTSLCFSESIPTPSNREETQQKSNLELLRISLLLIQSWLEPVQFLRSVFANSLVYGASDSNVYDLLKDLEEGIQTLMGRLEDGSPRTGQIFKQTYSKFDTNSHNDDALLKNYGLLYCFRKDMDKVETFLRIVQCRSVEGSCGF
hGHQ141N, P01241, sequence (P01241 27-217 Q167N): as the sequence (P01241 27-217 Q66N) above, with N40Q, Q141N counted along it

B1: Met-mTGase from S. mobaraensis (protein)
chain: MDSDDRVTPPAEPLDRMPDPYRPSYGRAETVVNNYIRKWQQVYSHRDGRKQQMTEEQREWLSYGCVGVTWVNSGQYPTNRLAFASFDEDRFKNELKNGRPRSGETRAEFEGRVAKESFDEEKGFQRAREVASVMNRALENAHDESAYLDNLKKELANGNDALRNEDARSPFYSALRNTPSFKERNGGNHDPSRMKAVIYSKHFWSGQDRSSSADKRKYGDPDAFRPAPGTGLVDMSRDRNIPRSPTSPGEGFVNFDYGWFGAQTEADADKTVWTHGNHYHAPNGSLGAMHVYESKFRNWSEGYSDFDRGAYVITFIPKSWNTAPDKVKQGWP
Consider B1, for which the Activity towards hGHQ40N (RFU/sec/µg), dansyl-cadaverine incorporation with hGHQ40N, P01241 was 5.44 RFU/sec/µg. In the data set with hGHQ141N, P01241, this protein yielded an Activity towards hGHQ141N (RFU/sec/µg), dansyl-cadaverine incorporation of 1.24 RFU/sec/µg.

B2: AlaPro-mTGase from S. ladakanum (protein)
chain: APDSDERVTPPAEPLDRMPDPYRPSYGRAETIVNNYIRKWQQVYSHRDGRKQQMTEEQREWLSYGCVGVTWVNSGQYPTNRLAFAFFDEDKYKNELKNGRPRSGETRAEFEGRVAKDSFDEAKGFQRARDVASVMNKALENAHDEGAYLDNLKKELANGNDALRNEDARSPFYSALRNTPSFKDRNGGNHDPSKMKAVIYSKHFWSGQDRSGSSDKRKYGDPEAFRPDRGTGLVDMSRDRNIPRSPTSPGESFVNFDYGWFGAQTEADADKTVWTHGNHYHAPNGSLGAMHVYESKFRNWSDGYSDFDRGAYVVTFVPKSWNTAPDKVKQGWP
Regarding B2, the Activity towards hGHQ40N (RFU/sec/µg), dansyl-cadaverine incorporation with hGHQ40N, P01241 was 6.91 RFU/sec/µg. In addition, the Activity towards hGHQ141N (RFU/sec/µg), dansyl-cadaverine incorporation with hGHQ141N, P01241 was 1.02 RFU/sec/µg.

B3: GlyPro-mTGase from S. ladakanum (protein)
chain: GPDSDERVTPPAEPLDRMPDPYRPSYGRAETIVNNYIRKWQQVYSHRDGRKQQMTEEQREWLSYGCVGVTWVNSGQYPTNRLAFAFFDEDKYKNELKNGRPRSGETRAEFEGRVAKDSFDEAKGFQRARDVASVMNKALENAHDEGAYLDNLKKELANGNDALRNEDARSPFYSALRNTPSFKDRNGGNHDPSKMKAVIYSKHFWSGQDRSGSSDKRKYGDPEAFRPDRGTGLVDMSRDRNIPRSPTSPGESFVNFDYGWFGAQTEADADKTVWTHGNHYHAPNGSLGAMHVYESKFRNWSDGYSDFDRGAYVVTFVPKSWNTAPDKVKQGWP
Protein B3 displayed an Activity towards hGHQ40N (RFU/sec/µg), dansyl-cadaverine incorporation in the data set with hGHQ40N, P01241 of 4.25 RFU/sec/µg. The same protein displayed an Activity towards hGHQ141N (RFU/sec/µg), dansyl-cadaverine incorporation in the data set with hGHQ141N, P01241 of 0.48 RFU/sec/µg.

B4: mTGase from S. mobaraensis (protein)
chain: DSDDRVTPPAEPLDRMPDPYRPSYGRAETVVNNYIRKWQQVYSHRDGRKQQMTEEQREWLSYGCVGVTWVNSGQYPTNRLAFASFDEDRFKNELKNGRPRSGETRAEFEGRVAKESFDEEKGFQRAREVASVMNRALENAHDESAYLDNLKKELANGNDALRNEDARSPFYSALRNTPSFKERNGGNHDPSRMKAVIYSKHFWSGQDRSSSADKRKYGDPDAFRPAPGTGLVDMSRDRNIPRSPTSPGEGFVNFDYGWFGAQTEADADKTVWTHGNHYHAPNGSLGAMHVYESKFRNWSEGYSDFDRGAYVITFIPKSWNTAPDKVKQGWP
In the case of B4, in the data set with hGHQ40N, P01241, the Activity towards hGHQ40N (RFU/sec/µg), dansyl-cadaverine incorporation worked out at 3.35 RFU/sec/µg. This protein also yielded an Activity towards hGHQ141N (RFU/sec/µg), dansyl-cadaverine incorporation with hGHQ141N, P01241 of 0.98 RFU/sec/µg.

B5: Met-mTGase from S. ladakanum (protein)
chain: MDSDERVTPPAEPLDRMPDPYRPSYGRAETIVNNYIRKWQQVYSHRDGRKQQMTEEQREWLSYGCVGVTWVNSGQYPTNRLAFAFFDEDKYKNELKNGRPRSGETRAEFEGRVAKDSFDEAKGFQRARDVASVMNKALENAHDEGAYLDNLKKELANGNDALRNEDARSPFYSALRNTPSFKDRNGGNHDPSKMKAVIYSKHFWSGQDRSGSSDKRKYGDPEAFRPDRGTGLVDMSRDRNIPRSPTSPGESFVNFDYGWFGAQTEADADKTVWTHGNHYHAPNGSLGAMHVYESKFRNWSDGYSDFDRGAYVVTFVPKSWNTAPDKVKQGWP
Take B5: the Activity towards hGHQ40N (RFU/sec/µg), dansyl-cadaverine incorporation in the data set with hGHQ40N, P01241 amounted to 4.74 RFU/sec/µg. The same protein returned an Activity towards hGHQ141N (RFU/sec/µg), dansyl-cadaverine incorporation in the data set with hGHQ141N, P01241 of 0.8 RFU/sec/µg.

B6: AlaPro-mTGase from S. mobaraensis (protein)
chain: APDSDDRVTPPAEPLDRMPDPYRPSYGRAETVVNNYIRKWQQVYSHRDGRKQQMTEEQREWLSYGCVGVTWVNSGQYPTNRLAFASFDEDRFKNELKNGRPRSGETRAEFEGRVAKESFDEEKGFQRAREVASVMNRALENAHDESAYLDNLKKELANGNDALRNEDARSPFYSALRNTPSFKERNGGNHDPSRMKAVIYSKHFWSGQDRSSSADKRKYGDPDAFRPAPGTGLVDMSRDRNIPRSPTSPGEGFVNFDYGWFGAQTEADADKTVWTHGNHYHAPNGSLGAMHVYESKFRNWSEGYSDFDRGAYVITFIPKSWNTAPDKVKQGWP
The protein B6 returned an Activity towards hGHQ40N (RFU/sec/µg), dansyl-cadaverine incorporation in the data set with hGHQ40N, P01241 of 5.05 RFU/sec/µg. This protein also gave an Activity towards hGHQ141N (RFU/sec/µg), dansyl-cadaverine incorporation with hGHQ141N, P01241 of 1.56 RFU/sec/µg.

B7: GlyPro-mTGase from S. mobaraensis (protein)
chain: GPDSDDRVTPPAEPLDRMPDPYRPSYGRAETVVNNYIRKWQQVYSHRDGRKQQMTEEQREWLSYGCVGVTWVNSGQYPTNRLAFASFDEDRFKNELKNGRPRSGETRAEFEGRVAKESFDEEKGFQRAREVASVMNRALENAHDESAYLDNLKKELANGNDALRNEDARSPFYSALRNTPSFKERNGGNHDPSRMKAVIYSKHFWSGQDRSSSADKRKYGDPDAFRPAPGTGLVDMSRDRNIPRSPTSPGEGFVNFDYGWFGAQTEADADKTVWTHGNHYHAPNGSLGAMHVYESKFRNWSEGYSDFDRGAYVITFIPKSWNTAPDKVKQGWP
As to B7, the Activity towards hGHQ40N (RFU/sec/µg), dansyl-cadaverine incorporation with hGHQ40N, P01241 stood at 4.28 RFU/sec/µg. The Activity towards hGHQ141N (RFU/sec/µg), dansyl-cadaverine incorporation with hGHQ141N, P01241 came out at 1.13 RFU/sec/µg.

B8: Mature mTGase from S. ladakanum (protein)
chain: DSDERVTPPAEPLDRMPDPYRPSYGRAETIVNNYIRKWQQVYSHRDGRKQQMTEEQREWLSYGCVGVTWVNSGQYPTNRLAFAFFDEDKYKNELKNGRPRSGETRAEFEGRVAKDSFDEAKGFQRARDVASVMNKALENAHDEGAYLDNLKKELANGNDALRNEDARSPFYSALRNTPSFKDRNGGNHDPSKMKAVIYSKHFWSGQDRSGSSDKRKYGDPEAFRPDRGTGLVDMSRDRNIPRSPTSPGESFVNFDYGWFGAQTEADADKTVWTHGNHYHAPNGSLGAMHVYESKFRNWSDGYSDFDRGAYVVTFVPKSWNTAPDKVKQGWP
For the protein B8, the Activity towards hGHQ40N (RFU/sec/µg), dansyl-cadaverine incorporation in the data set with hGHQ40N, P01241 came out at 3.55 RFU/sec/µg. This protein showed an Activity towards hGHQ141N (RFU/sec/µg), dansyl-cadaverine incorporation with hGHQ141N, P01241 of 0.63 RFU/sec/µg.
